± gives the standard deviation of the averaged measurements.
Test system: ATP
Test: switch fluorescence ratio, 500 uM ATP over buffer (Cy3 cluster intensity, sum of 5 cycles each) (fold (ratio)); higher = stronger signal-on switching upon ATP binding; sequences stand for … in TCGTCGGCAGCGTCAGATGTGTATAAGAGACAGTTTTTTTTTTTTTTTTTTTTTTTTT…TC
Details: aptamer strand: ATP DNA aptamer (quencher-CACCTGGGGGAGTATTGCGGAGGAAGG + anchor), 100 nM annealed; ATP concentration: 500 uM
How it was run: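 Five buffer/ATP imaging cycles were run on Cy3-labelled switching-strand clusters on a modified Illumina MiSeq flow-cell, with NaOH stripping and re-annealing between cycles. In each cycle, clusters annealed to 100 nM quencher-labelled ATP aptamer were imaged in selection buffer, then after 15 min with 500 uM ATP at 22 °C. Per cluster, the fluorescence ratio is summed target-cycle over summed buffer-cycle Cy3 intensity, averaged per switch-domain sequence. Only clusters within 100-1000 RFU were kept.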
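Further: ATP exposure 15 min at 22 °C before imaging.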

GTCGGAGAGC
switch fluorescence ratio: 1.04 ± 0.039

GAGACGACCA
switch fluorescence ratio: 1.15 ± 0.029

GGGCTTTCTC
switch fluorescence ratio: 1.09 ± 0.055

CGGGAGGGGG
switch fluorescence ratio: 1.06 ± 0.07

AGTGTGTTGC
switch fluorescence ratio: 1.023 ± 0.0095

GCTGCTGCAC
switch fluorescence ratio: 1.01 ± 0.049

TTTTCAAATT
switch fluorescence ratio: 1.01 ± 0.028

GGGGAATGGG
switch fluorescence ratio: 1.01 ± 0.028

TTGTCGGCG
switch fluorescence ratio: 1 ± 0.013

AGGATCGTCA
switch fluorescence ratio: 0.9893 ± 0.0038

TTTATCAGTT
switch fluorescence ratio: 0.951 ± 0.035

GTTAACTCCA
switch fluorescence ratio: 1.02 ± 0.022

GGGAACCGGA
switch fluorescence ratio: 1.03 ± 0.17

GTTCTCCTGA
switch fluorescence ratio: 1.01 ± 0.014

TTGGGCCGGT
switch fluorescence ratio: 1 ± 0.037

TAAGATCGGC
switch fluorescence ratio: 0.974 ± 0.017

GCTTATTGTA
switch fluorescence ratio: 0.9813 ± 0.0081

ATATTTTACG
switch fluorescence ratio: 1.02 ± 0.06

TAATGAGCTA
switch fluorescence ratio: 0.987 ± 0.042

TTGAAAAAGC
switch fluorescence ratio: 0.975 ± 0.015

GCAGTGTCCA
switch fluorescence ratio: 1.01 ± 0.032

TTACATGTCC
switch fluorescence ratio: 1.039 ± 0.0089

GGCAGGGGGA
switch fluorescence ratio: 1.01 ± 0.015

GACTGTTACA
switch fluorescence ratio: 1.2 ± 0.017

GGATGCGGCC
switch fluorescence ratio: 0.992 ± 0.023

ATATCCGGGA
switch fluorescence ratio: 1.03 ± 0.015

GAAATGTTGG
switch fluorescence ratio: 0.981 ± 0.024

GAGAGCTATA
switch fluorescence ratio: 1.07 ± 0.044

GCGAGATGGG
switch fluorescence ratio: 0.9735 ± 0.0013

GGCCTCTGCT
switch fluorescence ratio: 1.02 ± 0.02

TCAGCGGTTT
switch fluorescence ratio: 0.96 ± 0.055

TTCGAAAAAA
switch fluorescence ratio: 1.06 ± 0.14

TAAGTAAGGG
switch fluorescence ratio: 1 ± 0.025

ATGATTTTTC
switch fluorescence ratio: 0.976 ± 0.039

CGGATGTTTT
switch fluorescence ratio: 0.984 ± 0.02

GTGTAGGGGA
switch fluorescence ratio: 1.0019 ± 0.00055

TGCTAGATAA
switch fluorescence ratio: 1 ± 0.039

AATCGATTTG
switch fluorescence ratio: 0.989 ± 0.032

GCCCATTTTT
switch fluorescence ratio: 0.978 ± 0.011

GGGGAAAAAT
switch fluorescence ratio: 1.01 ± 0.032

GGTAGAGGGG
switch fluorescence ratio: 0.9628 ± 0.0078

AGCTCATGTG
switch fluorescence ratio: 0.988 ± 0.026

TTGAGCATGG
switch fluorescence ratio: 1.06 ± 0.051

TAGAAGGAAT
switch fluorescence ratio: 1.05 ± 0.044

TTTTAATTTG
switch fluorescence ratio: 0.994 ± 0.04

TGGTCGGCTG
switch fluorescence ratio: 1.007 ± 0.0044

ATTTTGTATG
switch fluorescence ratio: 0.976 ± 0.026

GATACTGTTG
switch fluorescence ratio: 0.988 ± 0.027

TAAGCTGGCG
switch fluorescence ratio: 1.06 ± 0.14

GGTTTATATA
switch fluorescence ratio: 1.006 ± 0.0018

TTAAGGGGA
switch fluorescence ratio: 1.06 ± 0.11

AGCTTGAGGT
switch fluorescence ratio: 0.9941 ± 0.0019

CCGATACGGT
switch fluorescence ratio: 1.08 ± 0.034

GCCTTTTTTA
switch fluorescence ratio: 0.996 ± 0.016

CAGTATCGCG
switch fluorescence ratio: 0.989 ± 0.005

CTGGGTCGGC
switch fluorescence ratio: 0.965 ± 0.04

GTGGGAAAGT
switch fluorescence ratio: 1.04 ± 0.015

GGTTGAATGA
switch fluorescence ratio: 0.992 ± 0.053

ATAGGGCCAG
switch fluorescence ratio: 1.06 ± 0.067

GGGGGACTAA
switch fluorescence ratio: 0.996 ± 0.042

AGTGGTTCGG
switch fluorescence ratio: 0.993 ± 0.015

GATTATGGGG
switch fluorescence ratio: 1.01 ± 0.013

GGGGCGTGAG
switch fluorescence ratio: 0.998 ± 0.034

TTTCTCAGTG
switch fluorescence ratio: 0.969 ± 0.011

TGGGACCCAT
switch fluorescence ratio: 1.02 ± 0.055

TTTTTTTCGT
switch fluorescence ratio: 1.07 ± 0.21

TTGTGAGTTT
switch fluorescence ratio: 1 ± 0.055

CTGAATTAGG
switch fluorescence ratio: 0.988 ± 0.02

ATGTAACCGT
switch fluorescence ratio: 1.01 ± 0.012

GGGGGGTCGA
switch fluorescence ratio: 1 ± 0.021

TAGTGATCTT
switch fluorescence ratio: 0.997 ± 0.0066

TGTAGGAGGA
switch fluorescence ratio: 1.01 ± 0.017

AATTGGCGTA
switch fluorescence ratio: 1.01 ± 0.034

TTCGCTGCCT
switch fluorescence ratio: 1.03 ± 0.019

ATGTTATACT
switch fluorescence ratio: 1.02 ± 0.028

AGGCGTAAAT
switch fluorescence ratio: 0.997 ± 0.029

GGTGTCTGCA
switch fluorescence ratio: 0.9931 ± 0.0019

GAGTGCTTGG
switch fluorescence ratio: 0.973 ± 0.022

CATTTTTGGA
switch fluorescence ratio: 1.003 ± 0.0076

GGGTATTGTA
switch fluorescence ratio: 0.999 ± 0.02

TATGATAGCC
switch fluorescence ratio: 1.04 ± 0.037

TCCATTTTGT
switch fluorescence ratio: 1.01 ± 0.05

GTGTGTTGTC
switch fluorescence ratio: 1.01 ± 0.02

GCCGAGCTCT
switch fluorescence ratio: 0.996 ± 0.024

GCATTATTAA
switch fluorescence ratio: 1.01 ± 0.032

GTTGGCAACA
switch fluorescence ratio: 1.04 ± 0.056

GGTGCGATGC
switch fluorescence ratio: 1.7 ± 0.081

GGGGGCACGA
switch fluorescence ratio: 1.07 ± 0.021

CGTTGTAGGG
switch fluorescence ratio: 0.989 ± 0.01

TATGTAGTCG
switch fluorescence ratio: 1.02 ± 0.038

GGAACAGAGG
switch fluorescence ratio: 0.9769 ± 0.007

CATATCATGG
switch fluorescence ratio: 0.988 ± 0.037

GGGGGGATAT
switch fluorescence ratio: 1.05 ± 0.097

GCCCGTATGC
switch fluorescence ratio: 1.07 ± 0.011

GCTTATAGGC
switch fluorescence ratio: 0.97 ± 0.032

GAGATGGGCA
switch fluorescence ratio: 1.01 ± 0.06

GTTAGAAAAA
switch fluorescence ratio: 1.03 ± 0.023

TTCAGAGAAA
switch fluorescence ratio: 0.98 ± 0.034

TTGACGATGT
switch fluorescence ratio: 1.17 ± 0.19

AAGAACTTGC
switch fluorescence ratio: 0.982 ± 0.053

TGTGTGTATG
switch fluorescence ratio: 0.999 ± 0.036

GTGTAAAGAC
switch fluorescence ratio: 1.03 ± 0.053

CCATCAAATA
switch fluorescence ratio: 1.01 ± 0.015

GGGCTGGTTC
switch fluorescence ratio: 1.03 ± 0.017

TCAGGCTAAC
switch fluorescence ratio: 1.01 ± 0.011

CGGTTACCGT
switch fluorescence ratio: 0.986 ± 0.013

TGGTTGGGGC
switch fluorescence ratio: 0.986 ± 0.023

GGATTGCCGA
switch fluorescence ratio: 1.01 ± 0.043

GGGGATGTTG
switch fluorescence ratio: 0.996 ± 0.013

TTTTAATCCC
switch fluorescence ratio: 1.07 ± 0.062

TTTCTTGGGC
switch fluorescence ratio: 1.007 ± 0.0018

ATGGTGTAGG
switch fluorescence ratio: 1.01 ± 0.012

GATTGTGGAC
switch fluorescence ratio: 1.1 ± 0.063

GATAATAGTG
switch fluorescence ratio: 1.08 ± 0.073

GGTGCGTACG
switch fluorescence ratio: 1.01 ± 0.058

TGGGGGGG
switch fluorescence ratio: 1 ± 0.024

GCTGGGAATG
switch fluorescence ratio: 0.98 ± 0.033

AAAGGAGGAG
switch fluorescence ratio: 0.991 ± 0.038

GGTATAAGGG
switch fluorescence ratio: 0.997 ± 0.02

GCAGCGGCTG
switch fluorescence ratio: 0.994 ± 0.014

AGAAATTTGG
switch fluorescence ratio: 1.01 ± 0.02

ATCTATCGTG
switch fluorescence ratio: 0.991 ± 0.021

GGGTCAGAAA
switch fluorescence ratio: 1.04 ± 0.11

CCTGGGGATT
switch fluorescence ratio: 1.07 ± 0.18

CTTAGGGGTC
switch fluorescence ratio: 0.997 ± 0.026

GGGGATACGG
switch fluorescence ratio: 1.026 ± 0.0047

TAGTATGTTT
switch fluorescence ratio: 1.004 ± 0.0061

TACTGTATTG
switch fluorescence ratio: 1.03 ± 0.13

TAGGTTTTGT
switch fluorescence ratio: 1 ± 0.044

GTTTGTGGTA
switch fluorescence ratio: 0.978 ± 0.011

TCGCAGCTTG
switch fluorescence ratio: 1.05 ± 0.029

TTGGGCTTGG
switch fluorescence ratio: 0.997 ± 0.033

GCTGTGTGTC
switch fluorescence ratio: 1.006 ± 0.0024

TGTTGTTTGC
switch fluorescence ratio: 0.982 ± 0.014

AATTTAGGAG
switch fluorescence ratio: 1.01 ± 0.051

CTGGGTATAG
switch fluorescence ratio: 1.02 ± 0.032

CGTTGTAGGA
switch fluorescence ratio: 0.999 ± 0.016

GTTTATGGGT
switch fluorescence ratio: 1.023 ± 0.009

GAGAAGAGGC
switch fluorescence ratio: 1.13 ± 0.023

TGGGTTCGGC
switch fluorescence ratio: 0.9808 ± 0.0045

ACGGGGTAAT
switch fluorescence ratio: 1.22 ± 0.35

TTGTATTTTG
switch fluorescence ratio: 0.985 ± 0.038

AAACGCGTTG
switch fluorescence ratio: 0.9955 ± 0.0011

TGGGACAAGC
switch fluorescence ratio: 0.979 ± 0.032

GAGGGGATCG
switch fluorescence ratio: 0.967 ± 0.015

TTTTTTGAGT
switch fluorescence ratio: 1 ± 0.023

ACTGTGGGGA
switch fluorescence ratio: 1.01 ± 0.013

TTCTAATGAG
switch fluorescence ratio: 0.998 ± 0.019

GGGTAACCGA
switch fluorescence ratio: 0.9832 ± 0.0019

AAAACGGCTC
switch fluorescence ratio: 1.01 ± 0.0097

CGATGGGGTG
switch fluorescence ratio: 0.998 ± 0.025

AGTTTTGAGG
switch fluorescence ratio: 1.001 ± 0.0016

GGCGGAGTAT
switch fluorescence ratio: 1 ± 0.017

GCGATTGGCT
switch fluorescence ratio: 1.06 ± 0.018

ACAAGGATA
switch fluorescence ratio: 1.006 ± 0.0077

AATCGGATTG
switch fluorescence ratio: 1 ± 0.025

TGCCAGTTCG
switch fluorescence ratio: 1.02 ± 0.025

Source: the supplement of paper PMC10126150
